For 16 molecules, Kd and KD results are on record in patent US12006368 (SURROZEN OPERATING, dated 2024).

For assay [1], the target named is T1, Fzd1 cysteine rich domain (CRD), C-terminally biotinylated (human, UniProt Q9UP38 101-230). In words: BLI; *=Kd <100 nM. On the procedure: (§1) Binding kinetics of antibody fragments to a variety of Fzd cysteine rich domain (CRD) protein targets (Fzd1, Fzd2, Fzd3, Fzd4, Fzd5, Fzd6, Fzd7, Fzd8, Fzd9 and/or Fzd10 CRDs) was determined by bio-layer interferometry (BLI) using Octet Red 96 (PALL ForteBio, Fremont, CA) instruments at 30° C., 1000 rpm with streptavidin (SA) biosensors. C-terminal biotinylated Fzd CRD recombinant protein was diluted to 20 nM in the running buffer (PBS, 0.05% Tween-20, 0.5% BSA, pH 7.2) and captured to the SA biosensor until coupling length reached 0.2 nm. Following capture of the Fzd CRD, the SA biosensor with captured biotinylated-Fzd CRD was dipped into wells containing the relevant antibody fragment at […] (0, 1.37, 4.12, 12.4, 37, 111.1, 333.3, 1000 nM) in running buffer, plus a well with only running buffer as a reference channel. […] was determined by global fitting, 1:1 binding model according to manufacturer recommended settings.
(§2) Table 1B provides clone IDs, the sequence identifier number of the antibody heavy chain fragment and/or light chain fragment, if present, for illustrative clones. In certain embodiments, the Fzd binding domain is an Fab or was derived from an Fab, so the heavy chain of Table 1B includes VH and CH1 sequence, but not CH2 or CH3 sequences. In certain embodiments, the Fzd binding domain is a VHH or sdAb® or was derived from a VHH or sdAb, so Table 1B includes the VHH domain. […] The Kd values were determined by BLI as described above. Blank entries denote that the binding to the specific Fzd receptor has not yet been determined. The entry of "n.b." indicates no binding.
(In BLI a coated tip is dipped into the sample, and binding shifts an interference pattern.)

The target of assay [2] is Fzd2 cysteine rich domain (CRD), C-terminally biotinylated (human, UniProt Q14332 24-155). In words: BLI; **=Kd 100-2000 nM. On the procedure: as §1, §2
Assay [3] has as its target Fzd7 cysteine rich domain (CRD), C-terminally biotinylated (human, UniProt O75084 36-165). As to the kind of experiment: BLI; **=Kd 100-2000 nM. The method, then: as §1, §2
In assay [4] the target is T1, Fzd1 cysteine rich domain (CRD), …. In words: BLI; **=Kd 100-2000 nM. The method, then:
as §1, §2

The target is the same in assay [5]. In words: BLI; **=Kd >100 nM. The method, then:
as §1
One antibody fragment, clone 001S-A04, was selected for alanine-scanning mutagenesis of CDRs, and the respective Fzd1 binding affinities of the various mutants were determined by Octet BLI as described in Example 1.

B1: 001S-A03 (Fab, V domains shown)
VH: QLQLQESGPGLVKPSQTLSLTCTVSGGSISSGGYYWSWIRQHPGKGLEWIGYIYYSGSTYYNPSLKSRVTISVDKSKNQFSLKLSSVTAADTAVYYCARVRDYYDSSGYYYDYFDYWGQGTLVTVSS
VL: DIQLTQSPSSLSASVGDRVTITCRASRSISSYFNWYQQKPGKAPKLLIYAASSLQSGVPSRFSGSRSGTDFTLTISSLQPEDFATYYCQQADTFPPTFGQGTRLEIKR
One may read the Kd as the constant that tells how readily two partners part at equilibrium. Regarding B1, the results for the Kd in assay [1], in assay [2] and in assay [3] were < 100 nM, 100 to 2000 nM and 100 to 2000 nM, respectively.

B2: 001S-G02 (Fab, V domains shown)
VH: QVQLQESGPGLVKPSETLSLTCTVSGGAISGTSYFWGWIRQPPGKGLEWIGSIYYTGNTYYNPSLKSRLTVSVDTSKNQFSLNLNSVTAADTATYYCARIGIAVAAPVDHWGQGTLVTVSS
VL: EIVLTQSPATLSLSPGEGATLSCRASQSVGTYLTWYRQKPGQAPRLLIYDASNRATGIPARFSGSGAGTDFTLKISRVEAEDVGVYYCMQATQFPLTFGQGTKVEIKR
In the case of B2, the Kd in assay [4], in assay [2] and in assay [3] was 100 to 2000 nM throughout.

B3: 003S-E07 (Fab, V domains shown)
VH: QVQLVQSGAEVKKPGSSVKVSCKASGYTFTNNFMHWVRQAPGQGLEWMGWINPNSGGTKYAQKFQGRVTITADESTSTAYMELSSLRSEDTAVYYCARSVGEVGATMLGIGVWYWFDPWGQGTLVTVSS
VL: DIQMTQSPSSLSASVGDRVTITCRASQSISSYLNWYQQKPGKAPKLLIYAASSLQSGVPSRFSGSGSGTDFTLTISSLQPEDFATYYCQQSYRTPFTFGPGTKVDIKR
notes: also called R2M9
For the molecule B3, in assay [2], the dissociation constant (Kd) lay in the range of 100 to 2000 nM.

B4: 002S-D04 (VHH)
VHH: QVKLEESGGGLVQAGGSLRLSCAASGGTSSTYAMGWFRQAPGKEREFVAAINRSGGSTYYADSVKGRFTISRDNAKNTVYLQMNSLNPEDTAVYYCAAVFLSRNYEIQEYYRYQGQGTQVTVSS
In turn, B4 displayed a Kd in assay [4] of 100 to 2000 nM.

B5: 005S-H05 (Fab, V domains shown)
VH: QVQLVQSGAEVKKPGASVKVSCKASGYTFTSYYMHWVRQAPGQGLEWMGRINPNSGGTNYAQKFQGRVTMTRDTSTSTVYMELSSLRSEDTAVYYCARVPDFWSGYLDYWGQGTLVTVSS
VL: DIQMTQSPSSLSASVGDRVTITCRASQGISSALAWYQQKPGKAPKLLIYAASSLQSGVPSRFSGSGSGTDFTLTISSLQPEDFATYYCQQTYSMPITFGQGTRLEIKR
B5 came in with a Kd in assay [2] of 100 to 2000 nM.

B6: 001S-H02 (Fab, V domains shown)
VH: QVQLQESGPGLVKPSETLSLTCTVSGGSISSSSYYWGWIRQHPGKGLEWIGYIYYSGSTYYNPSLKSRVTISVDTSKNQFSLKLNSVTAADTAVYYCARATYGGDAFDIWGQGTMVTVSS
VL: QSVVTQPPSVSGAPGQRVTISCTRSSSNIGAGYDVHWYQQHPGTAPKLLIFGNSIRPSGVPDRFSGSKSGTSATLGITGLQTGDEADYYCGTWDSSLSAWVFGGGTKLTVLG
As for B6, the Kd in assay [4], in assay [2] and in assay [3] was 100 to 2000 nM each time.

B7: 002S-A04 (VHH)
VHH: AVQLVESGGGLVQAGGSLRLSCTASGRTFSSYAMGWFRQAPGKEREFVAAISWSGRSTYYADSVKGRFTISRDNAKNTVYLQMNSLKSEDTAAYYCAAGPIARWYRGDMDYWGKGTLVTVSS
B7: in assay [1], the Kd was < 100 nM.

B8: 002S-C02 (VHH)
VHH: DVQLVESGGGLVQTGGSLRLSCVASGRTFRAYAMGWFRQAPGKEREFVSAISWSGGSTYYAGSVKGRFTISRDSAKNTVHLQMDSLIPEDTAVYYCAAGPIARWYRGDMDYWGKGTLVTVSS
For B8, the dissociation constant Kd in assay [1] was < 100 nM.

B9: 001S-A04 mutant VHT6A (Fab, V domains shown)
VH: EVQLVQSGAEVKKPGASVKVSCKASGYTFTSYGISWVRQAPGQGLEWMGWISAYNGNTNYAQKLQGRVTMTTDTSTSTAYMELRSLRSDDTAVYYCASSKEKAAYYYGMDVWGQGTTVTVSS
VL: QAVVLQEPSLSVSPGGTVTLTCGLSSGSVSTNYYPSWYQQTPGQAPRTLIYYTNTRSSDVPERFSGSIVGNKAALTITGAQPDDESVYFCLLYLGRGIWVFGGGTKLTVLG
For orientation: KD means the free concentration of one partner at which half of the binding sites on the other are occupied at equilibrium, for simple one-to-one binding. High values mean lower affinity, low ones higher affinity. In the case of B9, the KD in assay [5] was > 100 nM.

B10: 001S-A04 mutant VLW9A (Fab, V domains shown)
VH: EVQLVQSGAEVKKPGASVKVSCKASGYTFTSYGISWVRQAPGQGLEWMGWISAYNGNTNYAQKLQGRVTMTTDTSTSTAYMELRSLRSDDTAVYYCASSKEKATYYYGMDVWGQGTTVTVSS
VL: QAVVLQEPSLSVSPGGTVTLTCGLSSGSVSTNYYPSWYQQTPGQAPRTLIYYTNTRSSDVPERFSGSIVGNKAALTITGAQPDDESVYFCLLYLGRGIAVFGGGTKLTVLG
For B10, the KD in assay [5] is > 100 nM.

B11: 001S-A04 mutant VHY7A (Fab, V domains shown)
VH: EVQLVQSGAEVKKPGASVKVSCKASGYTFTSYGISWVRQAPGQGLEWMGWISAYNGNTNYAQKLQGRVTMTTDTSTSTAYMELRSLRSDDTAVYYCASSKEKATAYYGMDVWGQGTTVTVSS
VL: QAVVLQEPSLSVSPGGTVTLTCGLSSGSVSTNYYPSWYQQTPGQAPRTLIYYTNTRSSDVPERFSGSIVGNKAALTITGAQPDDESVYFCLLYLGRGIWVFGGGTKLTVLG
Regarding B11, the KD in assay [5] is > 100 nM.

B12: 001S-A04 mutant VHY9A (Fab, V domains shown)
VH: EVQLVQSGAEVKKPGASVKVSCKASGYTFTSYGISWVRQAPGQGLEWMGWISAYNGNTNYAQKLQGRVTMTTDTSTSTAYMELRSLRSDDTAVYYCASSKEKATYYAGMDVWGQGTTVTVSS
VL: QAVVLQEPSLSVSPGGTVTLTCGLSSGSVSTNYYPSWYQQTPGQAPRTLIYYTNTRSSDVPERFSGSIVGNKAALTITGAQPDDESVYFCLLYLGRGIWVFGGGTKLTVLG
B12: in assay [5], the KD is > 100 nM.

B13: 002S-B04 (VHH)
VHH: DVQLVESGGGLVQAGGSLRLSCAASGRTFSSYAMGWFRQAPGKEREFVAAISWSGGSTYYADSVKGRFTISRDNAKNTVYLQMNSLKPEDTAVYYCAAGPNYSWFMPSSSRLIWGQGTLVTVSS
For the molecule B13, the Kd in assay [4] was in the range of 100 to 2000 nM.

B14: 001S-B03 (Fab, V domains shown)
VH: QVQLQQWGAGLLKPSETLSLTCAVSGASFSGHYWTWIRQPPGKGLEWIGEIDHTGSTNYEPSLRSRVTISVDTSKNQFSLNLKSVTAADTAVYYCARGGQGGYDWGHYHGLDVWGQGTTVTVSS
VL: SYVLTQPPSVSVSPGQTASITCSGDKVGHKYASWYQQKPGQSPVLVIYEDSQRPSGIPVRFSGSNSGNTATLTISGTQAMDEADYYCQAWDSSTDVVFGGGTKLTVLG
notes: also called 1RC07
As for B14, in assay [1], the Kd is < 100 nM.

B15: 001S-B01 (Fab, V domains shown)
VH: QLQLQESGSGLVKPSQTLSLTCAVSGGSISSGGYSWSWIRQPPGKGLEWIGSIYHSGSTYYNPSLKSRLTISVDTSKNQFSLKLSSVTAADTAVYYCARFYYDILTGYSYFDYWGQGTLVTVSS
VL: DIVMTHTPLSLSVTPGEPASISCRSSRSLLDTDDGNTYLDWYLQKPGQSPQLLIHTLSHRASGVPDRFSGSGSGTDFTLKISRVEAEDVGVYYCMQSIQLPWTFGQGTKVEIKR
On to B15, for which the dissociation constant Kd in assay [4], in assay [2] and in assay [3] was 100 to 2000 nM in each case.

B16: 002S-B01 (VHH)
VHH: EVQLVESGGGLVQAGGSLRLSCTASGSTFSNYAMGWFRQAPGKEREFVAAISWGGGSTFYSGSVKGRFTISRDSAKNTVHLQMDSLIPEDTAVYYCAAGPIARWYRGDMDYWGKGTLVTVSS
For B16, the Kd in assay [1] was < 100 nM.
